Patent US20250136702A1, “HUMAN LIFR ANTIGEN BINDING PROTEIN, PREPARATION METHOD THEREFOR, AND APPLICATION THEREOF” (NONA BIOSCIENCES (SUZHOU) CO., LTD., priority 2020, published 2025)

Legend:
[1] = molecular target: human LIFR/gp130 heterodimer expressed on the surface of 293T cells (human) (UniProt P42702); assay: flow cytometry on HEK293T-huLIFR/gp130 cells, median fluorescence, span of the fitted curve
[2] = molecular target: human LIFR expressed on the surface of 293T cells (human) (UniProt P42702); assay: flow cytometry on HEK293T-huLIFR cells, median fluorescence, span of the fitted curve
human LIFR expressed on the surface of 293T cells (human), sequence (P42702 45-1097): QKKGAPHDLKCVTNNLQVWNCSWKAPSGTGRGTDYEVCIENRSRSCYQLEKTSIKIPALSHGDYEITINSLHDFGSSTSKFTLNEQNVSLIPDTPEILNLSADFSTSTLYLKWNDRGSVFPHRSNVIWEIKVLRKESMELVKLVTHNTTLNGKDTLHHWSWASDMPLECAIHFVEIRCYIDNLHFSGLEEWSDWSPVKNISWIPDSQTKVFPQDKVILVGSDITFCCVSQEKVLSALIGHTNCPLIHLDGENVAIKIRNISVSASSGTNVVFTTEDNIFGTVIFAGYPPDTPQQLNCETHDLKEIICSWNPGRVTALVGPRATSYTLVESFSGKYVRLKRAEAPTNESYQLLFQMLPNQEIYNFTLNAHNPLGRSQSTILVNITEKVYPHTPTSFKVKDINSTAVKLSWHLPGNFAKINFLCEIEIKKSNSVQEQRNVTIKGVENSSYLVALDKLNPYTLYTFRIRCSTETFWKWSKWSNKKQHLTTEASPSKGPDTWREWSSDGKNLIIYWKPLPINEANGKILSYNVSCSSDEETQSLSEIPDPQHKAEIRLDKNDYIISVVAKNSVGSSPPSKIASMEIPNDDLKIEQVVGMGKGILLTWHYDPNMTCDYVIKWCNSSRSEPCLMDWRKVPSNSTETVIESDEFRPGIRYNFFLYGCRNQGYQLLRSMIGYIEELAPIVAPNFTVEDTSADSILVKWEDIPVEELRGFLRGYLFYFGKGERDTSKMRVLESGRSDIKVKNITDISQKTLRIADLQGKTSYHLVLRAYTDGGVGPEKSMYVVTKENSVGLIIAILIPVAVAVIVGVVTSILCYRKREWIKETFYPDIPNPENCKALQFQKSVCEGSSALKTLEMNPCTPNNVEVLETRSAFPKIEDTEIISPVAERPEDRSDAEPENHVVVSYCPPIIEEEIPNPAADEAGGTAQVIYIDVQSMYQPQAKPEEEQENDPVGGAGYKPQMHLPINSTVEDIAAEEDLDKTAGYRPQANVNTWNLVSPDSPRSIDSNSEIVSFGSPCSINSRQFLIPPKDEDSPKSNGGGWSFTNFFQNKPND

human LIFR/gp130 heterodimer expressed on the surface of 293T cells (human), sequence (P42702 45-1097, chain 1 of 2): as the sequence (P42702 45-1097) above
human LIFR/gp130 heterodimer expressed on the surface of 293T cells (human), sequence (P40189 23-918, chain 2 of 2, further chain): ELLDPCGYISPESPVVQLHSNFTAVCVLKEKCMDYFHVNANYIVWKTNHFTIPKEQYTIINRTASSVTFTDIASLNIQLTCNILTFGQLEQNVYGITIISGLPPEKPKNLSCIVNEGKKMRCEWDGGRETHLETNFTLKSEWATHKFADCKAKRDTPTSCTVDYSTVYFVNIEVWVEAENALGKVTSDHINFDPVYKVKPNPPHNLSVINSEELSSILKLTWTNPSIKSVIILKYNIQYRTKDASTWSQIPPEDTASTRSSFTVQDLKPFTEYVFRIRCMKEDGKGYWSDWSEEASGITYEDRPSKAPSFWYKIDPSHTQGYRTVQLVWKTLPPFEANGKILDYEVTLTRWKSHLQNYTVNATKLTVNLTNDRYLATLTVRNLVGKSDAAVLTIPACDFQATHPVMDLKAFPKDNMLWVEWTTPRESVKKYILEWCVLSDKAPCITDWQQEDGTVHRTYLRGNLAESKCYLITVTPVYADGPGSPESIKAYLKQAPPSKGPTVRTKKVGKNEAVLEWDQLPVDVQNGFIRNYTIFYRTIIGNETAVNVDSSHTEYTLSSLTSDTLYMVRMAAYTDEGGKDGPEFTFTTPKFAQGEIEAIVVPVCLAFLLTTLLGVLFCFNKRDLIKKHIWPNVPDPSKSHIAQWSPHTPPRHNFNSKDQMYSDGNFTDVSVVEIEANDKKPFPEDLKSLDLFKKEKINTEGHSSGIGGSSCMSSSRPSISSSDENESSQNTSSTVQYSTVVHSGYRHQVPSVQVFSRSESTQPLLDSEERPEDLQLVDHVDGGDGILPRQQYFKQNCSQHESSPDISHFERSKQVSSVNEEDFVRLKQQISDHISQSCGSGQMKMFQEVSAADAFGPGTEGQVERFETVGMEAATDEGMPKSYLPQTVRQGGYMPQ

Span [1]: 90.1 | Span [2]: 12
Substance: hIgG1 (antibody)
